In ChEMBL document CHEMBL1154868 (J Nat Prod, 2010):

B1: Pyridoxal kinase (Homo sapiens), O00764 (protein)
chain: MEEECRVLSIQSHVIRGYVGNRAATFPLQVLGFEIDAVNSVQFSNHTGYAHWKGQVLNSDELQELYEGLRLNNMNKYDYVLTGYTRDKSFLAMVVDIVQELKQQNPRLVYVCDPVLGDKWDGEGSMYVPEDLLPVYKEKVVPLADIITPNQFEAELLSGRKIHSQEEALRVMDMLHSMGPDTVVITSSDLPSPQGSNYLIVLGSQRRRNPAGSVVMERIRMDIRKVDAVFVGTGDLFAAMLLAWTHKHPNNLKVACEKTVSTLHHVLQRTIQCAKAQAGEGVRPSPMQLELRMVQSKRDIEDPEIVVQATVL

Assays:
physchem = settings: octanol/water
Description: Lipophilicity, log P of the compound

[1] = substrate: Cc1ncc(CO)c(C=O)c1O; settings: Homo sapiens
Description: (§1) Activity at human PKH kinase expressed in Escherichia coli by affinity chromatography

[2] = substrate: Cc1ncc(CO)c(CO)c1O; settings: Homo sapiens
Description: as §1

[3] = substrate: Cc1ncc(CO)c(CN)c1O; settings: Homo sapiens
Description: as §1

[4] = substrate: COCc1c(CO)cnc(C)c1O; settings: Homo sapiens
Description: as §1

Molecule | logP (physchem) | Km [1] [µM] | Km [2] [µM] | Km [3] [µM] | Km [4] [µM]
Cc1ncc(CO)c(C=O)c1O [PYRIDOXAL] | -1.18 |  |  |  | 
B1 |  | 59 | 9.9 | 130 | 5
